Reference: patent US20210009693A1 (MABSPACE BIOSCIENCES SUZHOU, published 2021)
Residue numbers refer to the chain shown, from its start. Numbers in names are those of the source. Where two headings read alike, the source gives them in different places.

Assays:
[1] = target: T1, Recombinant Human PD-L1/CD274 Protein (hPD-L1-his) (human, UniProt Q9NZQ7 19-238); assay: ELISA on coated hPD-L1-his; bound at pH7.4, then 2 h at pH5.5
T1 construct: range 19-238; ACRO Biosystem PD1-H5229, made in HEK293; also called human PD-L1-his; hPD-L-his
T1 sequence (Q9NZQ7 other isoform, or with tags, fused parts or gaps limits assumed): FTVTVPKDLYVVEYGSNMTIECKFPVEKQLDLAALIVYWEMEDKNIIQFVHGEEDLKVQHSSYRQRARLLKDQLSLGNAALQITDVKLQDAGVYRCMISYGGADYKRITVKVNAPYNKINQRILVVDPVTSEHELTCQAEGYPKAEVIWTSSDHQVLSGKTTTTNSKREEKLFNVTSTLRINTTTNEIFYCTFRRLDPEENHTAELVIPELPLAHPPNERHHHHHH

[2] = target: T1, Recombinant Human PD-L1/CD274 Protein …; assay: ELISA on coated hPD-L1-his; bound at pH7.4, then 2 h at pH7.4
[3] = target: T2, human PD-L1 expressed on cells (human, UniProt Q9NZQ7 19-290); assay: FACS, IFN-gamma stimulated HCC827 cells
T2 construct: whole, on cells; also called hPD-L1 expressed on HCC827; hPD-L1 on MC38/hPD-L1 cells
T2 sequence (Q9NZQ7 19-290): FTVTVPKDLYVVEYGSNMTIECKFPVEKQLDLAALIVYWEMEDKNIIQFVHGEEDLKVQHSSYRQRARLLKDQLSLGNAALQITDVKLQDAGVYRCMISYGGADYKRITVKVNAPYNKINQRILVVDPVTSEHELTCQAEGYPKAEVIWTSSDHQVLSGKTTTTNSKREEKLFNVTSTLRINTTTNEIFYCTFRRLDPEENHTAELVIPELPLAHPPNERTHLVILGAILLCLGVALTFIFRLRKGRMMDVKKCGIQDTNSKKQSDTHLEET
Description: Log phase IFN-γ stimulated (500U/ml for 2 days) HCC827 cells were collected and resuspended in blocking buffer (5% BSA+PBS). 2×10\hat{ }5 cells were added to each tube and then washed once with PBS (1500 rpm, 5 mins, RT). The 100 μl/tube serial diluted biotinylated PD-L1 antibodies with blocking buffer were added into corresponding tubes and incubate at 4° C. for 1 hr.

[4] = target: T1, Recombinant Human PD-L1/CD274 Protein …; assay: ELISA on coated hPD-L1-his; bound at pH7.4, then 2 h at pH5.5; remark: listed apart in the source
[5] = target: T1, Recombinant Human PD-L1/CD274 Protein …; assay: ELISA on coated hPD-L1-his; bound at pH7.4, then 2 h at pH7.4; remark: listed apart in the source
[6] = target: T2, human PD-L1 expressed on cells; assay: blocking FACS on HCC827 cells; blocked ligand: biotinylated hPD-1-N297A
Description: (§1) Log phase IFN-γ stimulated (500U/ml for 2 days) HCC827 cells were collected and resuspended in blocking buffer (5% BSA+PBS). 2×10\hat{ }5 cells were added to each tube and then washed once with PBS (1500 rpm, 5 mins, RT). The 100 μl/tube serial diluted PD-L1 antibodies (see FIG. 8) with blocking buffer were added into corresponding tubes and incubate at 4° C. for 1 hr. […] After washing for three times with PBS, 100 μl/tube streptavidin-PE 1:200 (EBiosciences) in blocking buffer was added to each tube. The cells were incubated at 4° C. for 1 hr and then washed twice with PBS, followed by resuspending cells in 150 μl PBS for each sample. The cells were then transferred into FACS tube and the binding of the antibodies to the cells were detected with flow cytometry (ACEA Bioscience Novocyte).

[7] = target: T1, Recombinant Human PD-L1/CD274 Protein …; assay: ELISA on coated hPD-L1-his; bound at pH7.4, then 2 h at pH5.5; remark: listed apart in the source
[8] = target: T1, Recombinant Human PD-L1/CD274 Protein …; assay: ELISA on coated hPD-L1-his; bound at pH7.4, then 2 h at pH7.4; remark: listed apart in the source
[9] = target: T2, human PD-L1 expressed on cells; assay: blocking FACS on HCC827 cells; blocked ligand: biotinylated hPD-1-N297A; remark: listed apart in the source
Description: as §1, with “RT).” for “RT). The 100 μl/tube serial diluted PD-L1 antibodies (see FIG. 8) with blocking buffer were added into corresponding tubes and incubate at 4° C. for 1 hr.”, “1:200” for “1:200 (EBiosciences)”, “Novocyte) (see FIGS. 20A and 20B).” for “Novocyte).”

[10] = target: T1, Recombinant Human PD-L1/CD274 Protein …; assay: ELISA on coated hPD-L1-his
[11] = target: T3, wild type human PD-L1-Fc protein (SEQ ID NO: 107) (human); assay: ELISA on captured PD-L1-Fc, as in Example 18A
T3 construct: Extracellular human PD-L1 (amino acid 19-238) with Fc fragment of human IgG1, expressed in 293T cells and used as culture supernatant; also called WT PD-L1; wild-type PD-L1
T3 sequence (chain, as listed by the source limits assumed): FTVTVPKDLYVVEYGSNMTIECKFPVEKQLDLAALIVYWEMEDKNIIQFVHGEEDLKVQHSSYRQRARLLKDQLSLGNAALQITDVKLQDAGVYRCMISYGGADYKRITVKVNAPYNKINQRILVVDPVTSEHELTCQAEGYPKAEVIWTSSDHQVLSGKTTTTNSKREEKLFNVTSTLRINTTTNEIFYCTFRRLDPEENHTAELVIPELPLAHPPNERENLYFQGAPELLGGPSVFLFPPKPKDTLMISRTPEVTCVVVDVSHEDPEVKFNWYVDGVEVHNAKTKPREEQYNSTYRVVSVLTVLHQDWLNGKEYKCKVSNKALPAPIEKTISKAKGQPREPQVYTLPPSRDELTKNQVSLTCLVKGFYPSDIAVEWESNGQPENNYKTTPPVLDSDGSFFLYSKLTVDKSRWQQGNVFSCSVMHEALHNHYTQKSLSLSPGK

[12] = target: T4, human PD-L1-Fc mutant E58A (human); assay: ELISA on captured PD-L1-Fc, as in Example 18A
T4 construct: Position 58 counts on native human PD-L1 (NP_054862.1); also called E58A mutant
T4 sequence (chain, as listed by the source E58A E58A limits assumed): as the sequence (chain, as listed by the source limits assumed) above, with E40A counted along it

[13] = target: T2, human PD-L1 expressed on cells; assay: FACS, IFN-gamma stimulated HCC827 cells; remark: listed apart in the source
[14] = target: hPD-L1 (antigen of the Biacore assay) (human, UniProt Q9NZQ7 19-238, limits assumed); assay: SPR (Biacore), antibody captured on anti-human Fc, antigen in flow
hPD-L1 (antigen of the Biacore assay), sequence (Q9NZQ7 19-238 limits assumed): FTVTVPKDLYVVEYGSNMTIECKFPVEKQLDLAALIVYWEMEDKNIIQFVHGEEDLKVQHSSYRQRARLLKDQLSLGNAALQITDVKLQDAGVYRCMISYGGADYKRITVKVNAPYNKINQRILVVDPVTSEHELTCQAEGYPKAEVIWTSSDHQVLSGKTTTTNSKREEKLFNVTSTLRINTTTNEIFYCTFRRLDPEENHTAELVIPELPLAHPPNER
Method in brief: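 Antibody captured to 200–300 RU on an anti-human Fc CM5 surface, with an uncaptured flow cell as reference; antigen injected at varying concentrations, 180 s association, in HBS-EP pH 7.4. Regeneration with glycine pH 1.5 for 120 s; reference-subtracted signals evaluated.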

[15] = target: T1, Recombinant Human PD-L1/CD274 Protein …; assay: ELISA, coated hPD-L1-his, acidic wash and incubation after binding at pH7.4
Description: (§2) The pH-dependent binding affinity was further measured at various pH values, such as pH4, pH4.5, pH5.0, pH5.5, pH6.0, pH7.4. The measurement by ELISA was conducted similarly to the method described above. High-binding clear polystyrene 96 well plates were coated with 100 μl/well of a 0.5 μg/ml hPD-L1-his in high pH coating buffer and incubated overnight at 4° C. Then the coated plates were washed 3 times with shaking for 10s on an automatic plate washer with PBS+0.1% Tween 20 (Amresco). Then 200 μl of blocking buffer (1% BSA (Solarbio)+1% normal goat serum (Solarbio)+0.05% Tween 20 (Amresco)) was added to each well and the plates were then incubated for 2 hours at room temperature and washed 3 times as above. […] The plates were then washed once with 250 μl/well washing buffer at pH7.4, pH6.0, pH5.5, pH5.0, pH4.5 or pH4.0 and then 100 μl/well pH7.4 or pH5.5 washing buffer was added and the incubation was continued for 2 hours at RT with shaking. Afterwards, the plates was washed 3 times washing buffer at pH7.4 and 100 μl/well of a solution of HRP conjugated goat anti-hIgG HRP antibody (1:20000, Abcam) in pH7.4 dilution buffer was then added to each well of the plate. After that the plates were allowed to incubate for 60 min at room temperature followed by washing 3 times with 250 μl/well pH7.4 washing buffer. Finally, 100 μl/well of TMB was added to each well for 15 min and the reaction was terminated using 50 μl/well of 0.16M/L sulfuric acid. The plates were read on a Thermo Multiscan FC at 450 nm (see FIG. 23A-23F). The measurements were performed in triplicate.

[16] = target: T1, Recombinant Human PD-L1/CD274 Protein …; assay: ELISA on coated hPD-L1-his; bound at pH7.4, then 2 h at pH7.4; remark: listed apart in the source
Description: as §2

[17] = target: T1, Recombinant Human PD-L1/CD274 Protein …; assay: ELISA on coated hPD-L1-his; bound at pH7.4, then 2 h at pH5.5; remark: listed apart in the source
Description: as §2, with “Finally, 100 μl/well of TMB was added to each well for 15 min and the reaction was terminated using 50 μl/well of 0.16M/L sulfuric acid.” left out, “The measurements were performed in triplicate.” left out

[18] = target: T5, Human PD-L1/CD274 with C-Fc Tag (hPD-L1-Fc) (human, UniProt Q9NZQ7 19-238); assay: blocking ELISA on coated hPD-L1-Fc; blocked ligand: biotinylated hPD-1-N297A
T5 construct: range 19-238; ACRO Biosystem PD1-H5258, made in HEK293; also called human PD-L1-Fc; not shown: Fc fragment of human IgG1 at C-terminus
T5 sequence (Q9NZQ7 19-238 limits assumed): as above

[19] = target: T1, Recombinant Human PD-L1/CD274 Protein …; assay: ELISA on coated hPD-L1-his; bound at pH7.4, then 2 h at pH5.5; remark: listed apart in the source
[20] = target: T1, Recombinant Human PD-L1/CD274 Protein …; assay: ELISA on coated hPD-L1-his; bound at pH7.4, then 2 h at pH7.4; remark: listed apart in the source

B1: 21F11-C (antibody, V domains shown)
VH: QVQLQQPGAELVKPGASVKLSCKASGYTFTSNWMHWVKQRPGQGLEWIGMMHPNSGSINYNEKFKNKATLTADKSSSTAYMQLSSLTSEDSAVYYCARSYYGSSPYYFDYWGQGTTLTVSS
VL: DIQMTQTTSSLSASLGDRVTISCRASQDISNYLNWYQQKPDGTVKLLIYYTSRLHSGVPSRFSGSGSGTDFSLTISNLEEEDIATYFCQQGDTLPWTFGGGTKLEIK
notes: Mouse variable regions fused to a human IgG1 constant region; also called 21F11-chimeric; chimeric antibody 21F11
EC50 (read off the curve) [1]: ~0.01 mg/L
EC50 (read off the curve) [2]: ~0.01 mg/L

B2: 26F5-C (antibody, V domains shown)
VH: QVQLQQPGAELVKPGASVKLSCKASGYTFPSYWMHWMKQRPGQGLEWIGMIQPSTSGTIYNERFKNQVTLTVDKSSSTAYMQLSSQTSEDSAVYYCARGTGTVDYFDYWGQGTTLTVSS
VL: DIVLTQSPASLAVSLGQRATISCRASESVDSYGNSFIHWYQQKPGQPPKLLIHRASNLESGIPATFSGSGSRTDFTLTINPVEADDVATYYCQQSKEDPYTFGGGTKLEIK
notes: Mouse variable regions fused to a human IgG1 constant region; also called 26F5-chimeric; chimeric antibody 26F5
EC50 (read off the curve) [3]: ~0.1 mg/L
EC50 (read off the curve) [4]: ~0.02 mg/L
EC50 (read off the curve) [5]: ~0.01 mg/L
IC50 (read off the curve) [6]: ~0.09 mg/L

B3: 23F11-H4L4 (produced in CHO cells) (antibody, V domains shown)
VH: QVQLVQSGAEVKKPGASVKLSCKASGYIFTTYWMHWVKQRPGQGLEWIGMIQPNSGGTKYNEKFKKKATLTVDKSISTAYMELSRLTSDDTAVYYCARGAGTVDYFDYWGQGSTLTVSS
VL: B2 VL with L15V, S22T, S31I, I37M, H53Y, T65R, D85Q, V87T, K96T
notes: also called 23F11-H4L4 (CHO cell derived); 23F11 H4L4 CHO
EC50 (read off the curve) [7]: ~0.009 mg/L
EC50 (read off the curve) [8]: ~0.008 mg/L
IC50 (read off the curve) [9]: ~0.06 mg/L

B4: 23A11-H3L5 (antibody, V domains shown)
VH: B3 VH with Q1L, M34I, E62D, K63Q, K66N, K67R, S113T, T116S, V117I
VL: DIVLTQSPASLAVSVGQRATITCRASESVDIYGNSFMHWYQQKPGQAPKLLIYRASNLESGIPARFSGSGSRTDFTLTINPVEANDTATYYCQQSNDDPYTFGGGTKLETK
notes: Human IgG1 constant region with N297A; biotinylated in the alanine-scan ELISA; also called 23A11-H3L5-bio; humanized 23A11
EC50 (read off the curve) [10]: ~0.002 mg/L
Mean OD450 [11]: 1.34 OD450
OD450 nM of sample-1 [11]: 1.22 OD450
OD450 nM of sample-2 [11]: 1.47 OD450
% of binding of Ab to E58A mutant vs. that to WT PD-L1 [12]: 8.3%
Mean OD450 [12]: 0.111 OD450
OD450 nM of sample-1 [12]: 0.128 OD450
OD450 nM of sample-2 [12]: 0.094 OD450
EC50 (read off the curve) [13]: ~0.02 mg/L
Kd [14]: 0.0432 µM
koff [14]: 0.0223 s⁻¹
kon [14]: 517000 M⁻¹ s⁻¹
binding signal at pH5 as percent of the signal at pH7.4 [15]: < 50%
binding signal at pH5.5 as percent of the signal at pH7.4 [15]: < 75%
EC50 (read off the curve) [16]: ~0.01 mg/L
EC50 (read off the curve) [17]: ~0.02 mg/L
IC50 (read off the curve) [9]: ~0.05 mg/L
IC50 (read off the curve) [18]: ~0.05 mg/L

B5: 23A11-H3L5 CHO (antibody, V domains shown)
VH: B3 VH with M34I, E62D, K63Q, K66N, K67R, S113T, T116S, V117I
VL: B4 VL with N85Q
notes: CHO-produced counterpart of m16; also called 23A11-H3L5 produced in CHO cells
EC50 (read off the curve) [19]: ~0.008 mg/L
EC50 (read off the curve) [20]: ~0.006 mg/L
IC50 (read off the curve) [9]: ~0.05 mg/L
